Patent US20250170216A1 (Protagonist Therapeutics, Inc., priority 2022, published 2025)
Like-named read-outs stand apart in the source and are kept apart here.

How the values were obtained:
[1] = target: T1, ferroportin fused to green fluorescent protein (Mus musculus, UniProt Q9JHI9); conditions: read-out: EC50 (loss of fluorescence); 24 hours incubation; Hep25 preparations; cited from earlier work
T1 construct: expressed in transfected cells
T1 sequence (Q9JHI9 1-570): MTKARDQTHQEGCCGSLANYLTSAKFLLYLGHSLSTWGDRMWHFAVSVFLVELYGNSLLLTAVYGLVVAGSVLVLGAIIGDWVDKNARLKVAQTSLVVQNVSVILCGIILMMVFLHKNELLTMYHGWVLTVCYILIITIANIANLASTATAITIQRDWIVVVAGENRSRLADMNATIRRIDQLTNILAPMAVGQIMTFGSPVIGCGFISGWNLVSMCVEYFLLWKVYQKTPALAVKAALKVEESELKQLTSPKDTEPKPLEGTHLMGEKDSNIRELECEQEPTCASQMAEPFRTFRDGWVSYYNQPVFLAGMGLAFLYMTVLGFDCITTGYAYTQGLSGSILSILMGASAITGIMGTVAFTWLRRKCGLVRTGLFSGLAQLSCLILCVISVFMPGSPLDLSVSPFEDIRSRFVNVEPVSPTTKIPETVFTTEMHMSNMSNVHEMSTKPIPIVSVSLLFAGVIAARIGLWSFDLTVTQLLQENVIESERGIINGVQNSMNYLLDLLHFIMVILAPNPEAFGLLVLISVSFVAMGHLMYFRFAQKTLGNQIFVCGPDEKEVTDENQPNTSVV

ferroportin [2] = target: T2, ferroportin (Homo sapiens, UniProt Q9NP59); test: FPN activity assay: internalization of ferroportin-GFP in stably transfected HEK293 cells; format: cell-based; parameters: expressed in transfected cells
T2 sequence (Q9NP59 1-571): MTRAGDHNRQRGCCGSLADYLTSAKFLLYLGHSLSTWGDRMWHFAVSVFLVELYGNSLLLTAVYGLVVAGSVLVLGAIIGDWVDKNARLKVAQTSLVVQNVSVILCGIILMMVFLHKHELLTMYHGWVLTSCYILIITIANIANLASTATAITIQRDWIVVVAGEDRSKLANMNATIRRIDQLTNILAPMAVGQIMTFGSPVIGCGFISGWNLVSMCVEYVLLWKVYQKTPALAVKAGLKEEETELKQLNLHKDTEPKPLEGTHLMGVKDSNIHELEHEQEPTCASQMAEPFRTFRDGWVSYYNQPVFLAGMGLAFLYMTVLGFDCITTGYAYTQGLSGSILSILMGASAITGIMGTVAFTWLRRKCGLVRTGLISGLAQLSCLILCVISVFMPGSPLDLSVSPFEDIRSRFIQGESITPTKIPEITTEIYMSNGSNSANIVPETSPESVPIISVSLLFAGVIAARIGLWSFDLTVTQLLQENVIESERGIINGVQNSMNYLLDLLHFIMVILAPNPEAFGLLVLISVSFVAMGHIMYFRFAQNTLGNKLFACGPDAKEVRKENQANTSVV
Description: Peptide analogues were tested in vitro for induction of internalization of the human ferroportin protein. Following internalization, the ferroporin protein is degraded. The assay used (FPN activity assay) measures a decrease in fluorescence of the receptor. The cDNA encoding the human ferroportin (SLC40A1) was cloned from a cDNA clone from Origene (NM_014585). The DNA encoding the ferroportin was amplified by PCR using primers also encoding terminal restriction sites for subcloning, but without the termination codon. The ferroportin receptor was subcloned into a mammalian GFP expression vector containing a neomycin (G418) resistance marker in such that the reading frame of the ferroportin was fused in frame with the GFP protein. The fidelity of the DNA encoding the protein was confirmed by DNA sequencing. HEK293 cells were used for transfection of the ferroportin-GFP receptor expression plasmid. The cells were grown according to standard protocol in growth medium and transfected with the plasmids using Lipofectamine (manufacturer's protocol, Invitrogen). […] The EC50 of these reference compounds for ferroportin internalization/degradation was determined according to the FPN activity assay described above. […]

ferroportin [3] = target: T2, ferroportin; test: T47D cell-based ferroportin internalization assay in presence of 0.5% mouse serum albumin (MSA); parameters: a human breast carcinoma adherent cell line which endogenously expresses ferroportin; host or cells: T47D; conditions: Table 1C
Description: The potency of the peptides in causing ferroportin internalization was evaluated in a T47D cell-based assay. […] In this internalization assay, the potency of the test peptides was evaluated in the presence of serum albumin, which is the main protein component in the blood. T47D cells were maintained in RPMI media (containing required amount of fetal bovine serum) and regularly sub-cultured. In preparation for the assay, the cells were seeded in 96-well plates at a density of 80-100 k cells per well in 100 ul volume and allowed to rest overnight. On the next day, test peptides were first prepared in dilution series (10-point series, starting concentration of ˜5 μM, typically 3-4×fold dilution steps), all with 0.5% mouse serum albumin (MSA purified from mouse serum; Sigma, A3139). The test peptide dilution series were allowed to incubate at room temperature for 30 min. Then the media was aspirated from the 96-well cell plate and test peptide dilution series were added. […] The Median Fluorescence Intensity (MFI) of the AF647-positive population was measured (after removing dead cells and non-singlets from the analysis). […] The IC50 potencies were calculated by using 4-parameter non-linear fitting function in Graphpad Prism, and the results are provided in Table 1C.

[4] = target: human ferroportin (SLC40A1) fused in frame with GFP, stably expressed in HEK293 cells (human) (UniProt Q9NP59); test: cell-based or functional assay
[5] = target: ferroportin endogenously expressed on T47D cells (HTB 133, ATCC) (human) (UniProt Q9NP59); test: cell-based or functional assay

For `CC[C@H](C)[C@@H]1NC(=O)[C@@H](NC(=O)[C@@H](NC(=O)[C@@H]2CCCN2C(=O)[C@H](Cc2ccccc2)NC(=O)[C@H](Cc2c[nH]cn2)NC(=O)[C@@H](NC(=O)[C@@H](N)CC(=O)O)[C@@H](C)O)[C@@H](C)CC)CSSC[C@@H](C(=O)N[C@@H](CCCCN)C(=O)N[C@H](C(=O)O)[C@@H](C)O)NC(=O)[C@@H]2CSSC[C@@H]3NC(=O)[C@@H]4CSSC[C@H](NC(=O)[C@H](Cc5ccccc5)NC1=O)C(=O)N[C@@H](CSSC[C@H](NC(=O)[C@H](CCCCN)NC(=O)[C@H](CO)NC(=O)[C@H](CCCNC(=N)N)NC(=O)[C@H](Cc1c[nH]cn1)NC3=O)C(=O)NCC(=O)N[C@@H](CCSC)C(=O)N2)C(=O)NCC(=O)N4` [Hepcidin, Hy-DTHFPIC(1)IFC(2)C(3)GC(2)C(4)HRSKC(3)GMC(4)C(1)KT-OH], the EC50 [1] is given as 5 to 15 nM.
Work on `CC[C@@H](C)[C@@H](NC(=O)[C@H](N)Cc1ccccc1)C(=O)N[C@H](CS)C(=O)N[C@@H](C(=O)N1CCC[C@@H]1C(=O)N[C@H](Cc1ccccc1)C(=O)N[C@H](Cc1c[nH]cn1)C(=O)N[C@@H](C(=O)N[C@H](CC(=O)O)C(N)=O)[C@H](C)O)[C@H](C)CC` [RI-Mini Hepcidin, Hy-DPhe-DIle-DCys-DIle-DPro-DPhe-DHis-DThr-DAsp-NH2] yielded a DC50 (ferroportin [2]; Table 6 reference compounds, read-out: Potency EC50) of over 10000 nM.
`CC[C@H](C)[C@@H]1NC(=O)[C@@H](NC(=O)[C@@H]2CCCN2C(=O)[C@@H](NC(=O)[C@H](Cc2cnc[nH]2)NC(=O)[C@@H](NC(=O)[C@H](CCC(=O)O)NC(=O)CC(C)C)[C@@H](C)O)C(c2ccccc2)c2ccccc2)CSSC(C)(C)[C@@H](C(N)=O)NC(=O)[C@@H](CCCCN)NC(=O)C[C@H](Cc2ccccc2)NC(=O)[C@H](CCCCNC(=O)CCOCCOCCOCCOCCOCCOCCOCCOCCOCCOCCOCCOCCNC(=O)CCCCCCCCCCC(=O)O)NC1=O` [compound 4] gave an IC50 (ferroportin [3]) of 11 to 100 nM and a DC50 (ferroportin [2]; Table 1C, FPN internalization assay, read-out: IC50: FPN) of over 500 nM.
Hepcidin (peptide) gave a Potency EC50 (nM), FPN activity assay [4] of 34 nM.
In the case of “Isovaleric_Acid-E-C-H-DIP-P-C-I-dK-(NMe_Lys_AlbuTag)-dK-C-NH2-Trimethylbenzene (peptide)”, the IC50: FPN (nM), FPN internalization assay; *=IC50>500 nM [4] is reported as over 500 nM and the IC50: T47D MSA (nM), T47D internalization assay; *=>500 nM [5] is reported as over 500 nM.
Work on “Isovaleric_Acid-E-C-H-DIP-P-C-I-dK-DIP-(NMe_Lys_AlbuTag)-dK-C-am-Trimethylbenzene (peptide)” yielded an IC50: T47D MSA (nM), T47D internalization assay; *=>500 nM [5] of over 500 nM.
Compound “Isovaleric_Acid-E-T-H-DIP-P-C-I-[Lys_1PEG2_1PEG2_Ahx_C4_Diacid]-bhF-[dLys_PEG11_OMe]-C-NH2 (peptide)” has an IC50: FPN (nM), FPN internalization assay; *=IC50>500 nM [4] of over 500 nM.
In the case of “Isovaleric_Acid-E-T-H-DIP-P-C-I-[Lys_PEG12_C6_Diacid]-bhF-[dLys_PEG11_OMe]-Pen-NH2 (peptide)”, the IC50: T47D MSA (nM), T47D internalization assay; *=>500 nM [5] is reported as over 500 nM.
“Isovaleric_Acid-E-T-H-DIP-P-C-I-[Lys_PEG12_C12_Diacid]-bhF-dK-Pen-NH2 (peptide)” gave an IC50: FPN (nM), FPN internalization assay; *=IC50>500 nM [4] of over 500 nM.
Work on “Isovaleric_Acid-E-T-H-DIP-P-C-I-dK-bhF-(Lys_Dap_C8_Diacid)-dK-C-NH2 (peptide)” yielded an IC50: T47D MSA (nM), T47D internalization assay; *=>500 nM [5] of over 500 nM.
“Isovaleric_Acid-E-hSer-H-DIP-P-C-I-[Lys_1PEG2_1PEG2_Ahx_C18_Diacid]-bhF-[dLys_PEG11_OMe]-C-NH2 (peptide)” gave an IC50: T47D MSA (nM), T47D internalization assay; *=>500 nM [5] of over 500 nM.
In the case of Mini-Hepcidin 1-9 (peptide), the Potency EC50 (nM), FPN activity assay [4] is reported as 712 nM.
RI-Mini Hepcidin (peptide) gave a Potency EC50 (nM), FPN activity assay [4] of over 10000 nM.
